Results from article PMC8406172, “Mechanism of DNA Interaction and Translocation by the Replicase of a Circular Rep-Encoding Single-Stranded DNA Virus” (mBio, 2021).

What was measured:
[1] = tested on: Nc1ccn([C@@H]2O[C@H](COP(=O)(O)OP(=O)(O)OP(=O)(O)O)[C@@H](O)[C@H]2O)c(=O)n1; test: purified protein; details: 66 nM Rep, room temperature; copurifying DNA present
From the text: (§1) NTP/NADH-coupled spectrophotometric assay (pyruvate kinase / lactate dehydrogenase) on PCV2 Rep (replicase)

[2] = tested on: Nc1nc2c(ncn2[C@@H]2O[C@H](COP(=O)(O)OP(=O)(O)OP(=O)(O)O)[C@@H](O)[C@H]2O)c(=O)[nH]1; test: purified protein; details: 66 nM Rep, room temperature; copurifying DNA present
From the text: as §1

[3] = tested on: O=c1ccn([C@@H]2O[C@H](COP(=O)(O)OP(=O)(O)OP(=O)(O)O)[C@@H](O)[C@H]2O)c(=O)[nH]1; test: purified protein; details: 66 nM Rep, room temperature; copurifying DNA present
From the text: as §1

[4] = target: porcine circovirus 2 (PCV2) replicase (Rep) (porcine circovirus 2 (PCV2b)); test: cryo-EM structure

Substance | K0.5 [1] [µM] | kcat [1] [s⁻¹] | K0.5 [2] [µM] | kcat [2] [s⁻¹] | K0.5 [3] [µM] | kcat [3] [s⁻¹] | stoichiometry N [4]
PCV2 Rep (replicase) (Porcine circovirus 2) | 284.4 | 0.16 | 577.2 | 0.56 | 78.5 | 0.24 | 
porcine circovirus 2 (PCV2) replicase (Rep) (enzyme) |  |  |  |  |  |  | 6
